Measured values reported in US20230203202A1 (DRAGONFLY THERAPEUTICS, published 2023).

Key:
[1] = biological target: T1, human 5T4 (SPR and epitope mapping, construct not stated) (human, UniProt Q13641 32-355, limits assumed); assay: SPR, kinetics fit
T1 construct: also called h5T4
T1 sequence (looked up): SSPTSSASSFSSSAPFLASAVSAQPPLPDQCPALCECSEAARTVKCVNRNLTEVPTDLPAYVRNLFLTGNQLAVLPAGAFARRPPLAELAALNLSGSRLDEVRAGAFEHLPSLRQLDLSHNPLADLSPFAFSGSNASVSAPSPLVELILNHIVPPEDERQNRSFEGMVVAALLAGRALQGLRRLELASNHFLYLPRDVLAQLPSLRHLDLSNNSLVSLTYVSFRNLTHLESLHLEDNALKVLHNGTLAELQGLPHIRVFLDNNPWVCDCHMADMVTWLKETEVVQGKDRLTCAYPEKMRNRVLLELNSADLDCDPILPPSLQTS

[2] = biological target: T2, human 5T4 on the cell surface (human, UniProt Q13641 32-420); assay: cell-based or functional assay
T2 sequence (looked up): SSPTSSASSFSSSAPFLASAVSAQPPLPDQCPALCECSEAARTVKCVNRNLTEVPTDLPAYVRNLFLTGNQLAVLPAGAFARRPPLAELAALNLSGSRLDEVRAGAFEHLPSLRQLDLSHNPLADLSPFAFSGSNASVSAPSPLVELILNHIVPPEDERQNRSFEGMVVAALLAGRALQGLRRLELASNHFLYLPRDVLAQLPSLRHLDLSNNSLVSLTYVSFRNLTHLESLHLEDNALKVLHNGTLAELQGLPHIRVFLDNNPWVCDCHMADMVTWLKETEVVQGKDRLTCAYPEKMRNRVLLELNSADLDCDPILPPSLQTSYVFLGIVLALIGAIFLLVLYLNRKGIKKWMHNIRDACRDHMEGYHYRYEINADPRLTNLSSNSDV

[3] = biological target: T3, human NKG2D on CD8+ T cells (human, UniProt P26718 1-216); assay: cell-based or functional assay
T3 sequence (looked up): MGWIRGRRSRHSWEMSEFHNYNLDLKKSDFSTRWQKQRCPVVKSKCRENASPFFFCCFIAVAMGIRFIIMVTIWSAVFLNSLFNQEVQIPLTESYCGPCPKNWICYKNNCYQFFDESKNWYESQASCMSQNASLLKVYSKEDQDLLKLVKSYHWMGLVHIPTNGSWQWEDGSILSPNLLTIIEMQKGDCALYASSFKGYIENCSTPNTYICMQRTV

[4] = biological target: T2, human 5T4 on the cell surface; assay: flow cytometry on HT29 cells (5,000 5T4 per cell)
[5] = biological target: T2, human 5T4 on the cell surface; assay: flow cytometry on HCT116 cells (14,000 5T4 per cell)
[6] = biological target: T1, human 5T4 (SPR and epitope mapping, …); assay: SPR, h5T4 binding; control sample, HST pH 6, 7 days 4 °C
[7] = biological target: T1, human 5T4 (SPR and epitope mapping, …); assay: SPR, h5T4 binding; sample stressed in Tris pH 9, 7 days 40 °C
[8] = biological target: T1, human 5T4 (SPR and epitope mapping, …); assay: SPR, h5T4 binding; sample oxidised in PBS 0.02% H2O2, 24 hrs RT
[9] = biological target: T1, human 5T4 (SPR and epitope mapping, …); assay: SPR, h5T4 binding; sample stressed in acetate pH 4, 7 days 40 °C
[10] = biological target: T1, human 5T4 (SPR and epitope mapping, …); assay: SPR, Biacore 8K, 37 °C, TriNKET captured on anti-hFc chip, pH 7.4
Experimental: Briefly, SPR was performed using a Biacore 8K instrument at physiological temperature of 37° C. Briefly, human Fc specific antibodies were covalently immobilized at a density of about 8000-10000 resonance units (RU) on carboxy methyl dextran matrix of a CM5 biosensor chip to create an anti-hFc IgG chip. Samples were injected on the anti-hFc IgG chip at a flow rate of 10 μL/min for 60 seconds. Protein was serially diluted (300 nM-0.14 nM) in three-fold dilutions with running buffer and injected at a flow rate of 30 μl/min over the captured test articles. Association was monitored for 240-300 seconds, and dissociation was monitored for 300-900 seconds. Surfaces were regenerated between cycles with three pulses of 10 mM glycine-HCl (pH 1.7) injected for 20 seconds at 100 μL/min.

[11] = biological target: T2, human 5T4 on the cell surface; assay: cell binding assay on 5T4-expressing tumor cells (cell line not given)
[12] = biological target: T2, human 5T4 on the cell surface; assay: flow cytometry on H292 cells (11,000 5T4/cell), fold over background
Experimental: (§1) The KYSE-30 and H292 human cancer cell lines, derived from esophageal squamous cell carcinoma and non-small cell lung carcinoma, respectively, were used. […] After incubation, binding patterns of the TriNKET® and mAb to 5T4+ cells were detected using a fluorophore conjugated anti-human IgG secondary antibody. Cells were analyzed by flow cytometry and fold MFI over secondary-only controls reported.

[13] = biological target: T2, human 5T4 on the cell surface; assay: flow cytometry on KYSE-30 cells (61,000 5T4/cell), fold over background
Experimental: as §1

[14] = biological target: T2, human 5T4 on the cell surface; assay: flow cytometry on primary lung cancer-associated fibroblasts (Donor #377913A1), fold over background

B1: AB1310/AB1783-TriNKET® (bispecific antibody, human IgG1, kappa)
chain: DIQLTQSPSSLSASVGDRVTITCRASQSVTTSNYNYMHWFQQKPGKAPKLLIKFASNLESGVPSRFSGSGSGTDFTLTISSLQPEDFATYYCQHSWEIPWTFGCGTKVEIKGGGGSGGGGSGGGGSGGGGSEVQLVESGGGLVKPGGSLRLSCAASRFTFSDFGMHWVRQAPGKCLEWVSYISSGSSTIYYADSVKGRFTISRDNAKNSLYLQMNSLRAEDTAVYYCASSQSYYRGTLDYWGQGTTVTVSSASDKTHTCPPCPAPELLGGPSVFLFPPKPKDTLMISRTPEVTCVVVDVSHEDPEVKFNWYVDGVEVHNAKTKPREEQYNSTYRVVSVLTVLHQDWLNGKEYKCKVSNKALPAPIEKTISKAKGQPREPRVYTLPPCRDELTKNQVSLTCLVKGFYPSDIAVEWESNGQPENNYKTTPPVLVSDGSFTLYSKLTVDKSRWQQGNVFSCSVMHEALHNHYTQKSLSLSPG
heavy: EVQLVESGGGLVKPGGSLRLSCAASGFTFSSYSMNWVRQAPGKGLEWVSSISSSSSYIYYADSVKGRFTISRDNAKNSLYLQMNSLRAEDTAVYYCARGAPIGAAAGWFDPWGQGTLVTVSSASTKGPSVFPLAPSSKSTSGGTAALGCLVKDYFPEPVTVSWNSGALTSGVHTFPAVLQSSGLYSLSSVVTVPSSSLGTQTYICNVNHKPSNTKVDKKVEPKSCDKTHTCPPCPAPELLGGPSVFLFPPKPKDTLMISRTPEVTCVVVDVSHEDPEVKFNWYVDGVEVHNAKTKPREEQYNSTYRVVSVLTVLHQDWLNGKEYKCKVSNKALPAPIEKTISKAKGQPREPQVCTLPPSRDELTENQVSLTCLVKGFYPSDIAVEWESNGQPENNYKTTPPVLDSDGSFFLYSWLTVDKSRWQQGNVFSCSVMHEALHNHYTQKSLSLSPG
light: DIQMTQSPSSVSASVGDRVTITCRASQGISSWLAWYQQKPGKAPKLLIYAASSLQSGVPSRFSGSGSGTDFTLTISSLQPEDFATYYCQQGVSFPRTFGGGTKVEIKRTVAAPSVFIFPPSDEQLKSGTASVVCLLNNFYPREAKVQWKVDNALQSGNSQESVTEQDSKDSTYSLSSTLTLSKADYEKHKVYACEVTHQGLSSPVTKSFNRGEC
notes: also called AB1310-TriNKET®; AB1783 10F10 F3′ LH H(T62S) CHO opt
In the case of B1, the Kd [1] is reported as 6.1 nM, the koff [1] is reported as 0.00077 s⁻¹ and the kon [1] is reported as 130000 M⁻¹ s⁻¹. The “ADCP of KYSE-30 cells by M0 macrophages, EC50” value [2] was 0.089 nM, the “ADCP of NCI-H292 cells by M0 macrophages, EC50” value [2] was 0.15 nM and the “CD8+ T-cell lysis of BT-474 cells (Incucyte, 72 h), EC50” value [3] was 0.66 nM. For the same binder, the “CD8+ T-cell lysis of FaDu cells (Incucyte, 72 h), EC50” value [3] was 0.59 nM, the EC50 [4] was 4.1 nM and the EC50 [5] was 2.1 nM. For the same binder, the Kd [6] was 7.8 nM, the koff [6] was 0.00091 s⁻¹ and the kon [6] was 120000 M⁻¹ s⁻¹. The koff [7] was 0.0016 s⁻¹, the kon [7] was 110000 M⁻¹ s⁻¹ and the Kd [8] was 7 nM. It also gave a koff [8] of 0.00086 s⁻¹, a kon [8] of 120000 M⁻¹ s⁻¹ and a Kd [9] of 7.6 nM. For the same binder, the koff [9] was 0.00091 s⁻¹, the kon [9] was 120000 M⁻¹ s⁻¹ and the Kd [10] was 6.1 nM. It also gave a koff [10] of 0.00077 s⁻¹, a kon [10] of 130000 M⁻¹ s⁻¹ and an EC50 [11] of 3.42 nM. For the same binder, the “Max Fold Over Background (FOB)” value [11] was 82.8 fold over background, the “EC50 (read off the curve)” value [12] was about 3 nM and the “EC50 (read off the curve)” value [13] was about 2 nM. The “EC50 (read off the curve)” value [14] was about 4 nM.
